Results published in patent publication US8114412B2, “T. cruzi-derived neurotrophic agents and methods of use therefor” (priority 1999, dated 2012).
“Also recorded” adds a separate entry of the source.

Key:
[1] = system: N18 cells; assay: Neurite outgrowth assay in N18 cells; type: cell-based; details: immobilized proteins coated at 500 μg/ml, 17 hours (FIG. 3A)
Description: FIG. 3A is a graph showing that neurite outgrowth in N18 cells is induced by immobilized laminin (Ln), immobilized TS and immobilized fragments of TS. Proteins were immobilized by incubating plates which contained wells filled with solutions of the proteins (protein concentration was 500 μg/ml) at 4° C. overnight. The protein solutions were removed and the plates were further incubated with 1% BSA at room temperature for one hour. N18 cells were cultured in the coated wells in serum-free RPMI-1640/0.2% BSA for 17 hours, and neurite outgrowth was measured by phase-contrast microscopy. […] Ln, laminin; TS, purified T. cruzi trans-sialidase; 7F, recombinant TS from clone 7F; 19Y, recombinant TS from clone 19Y; TS-F, recombinant fragment consisting of amino acid residues 33-666 of TS (SEQ ID NO:2); TS-CC-47, recombinant fragment consisting of amino acid residues 79-478 of TS (SEQ ID NO:2); TS-Cat-47, recombinant fragment consisting of amino acid residues 79-415 of TS (SEQ ID NO:2); BSA, bovine serum albumin.
96-well microtiter plates were coated overnight at 4° C. with the TS or peptides or fragments thereof, or with control proteins laminin (Ln) or bovine serum albumin (BSA) at 500 μg/ml. After removing the compounds, the plates were further incubated with 1% BSA for 1 hour at room temperature and immediately used as substratum for PC12 or N18 (Prasad, K. N., Biol Rev Camb Philos Soc, 66:431-451 (1991)) cells in serum-free RPMI/0.2% BSA. Neurite outgrowth was measured using a phase-contrast microscope 17 hours later.

[2] = system: PC12 cells; assay: Trophic factor withdrawal-induced apoptosis of PC12 cells (DAPI/TUNEL); type: cell-based, rat
Text: PC12 cells were obtained from ATCC (Manassas, Va. (Accession No. CRL-1721)) and cultured on collagen-coated dishes in RPMI 1640 supplemented with 10% horse serum and 5% fetal bovine serum (Greene, L. A. and Tishler, A. S., Proc. Natl. Acad. Sci. USA, 73: 2424-2428 (1976)). For differentiation and survival experiments, cells were washed three times in serum-free RPMI/0.2% BSA, plated in the same medium in collagen-coated plastic dishes at 2×10^5/ml, without and with growth factors, TS, recombinant proteins, synthetic peptides, for the time and concentrations indicated in the Figures.
Cell staining with 4,6-diamino-2-phenylindole (DAPI). Cells were fixed with 4% formaldehyde in PBS for 5 minutes, washed with PBS, stained with 10 μg/ml DAPI (Sigma) for 2 minutes, washed with PBS, and visualized under UV light using a fluorescent microscope. About 300-400 cells were examined under the microscope to determine the percentage of apoptotic cells.
Cell DNA nick end labeling (TUNEL) (Gavrieli, Y., et al., J. Cell. Biol. 119: 493-501 (1992)) assay was performed using a kit purchased from Boehringer Mannheim as described by the manufacturer.
Protection against apoptosis of PC12 cells in serum-free medium containing a test agent (agent N)(e.g., protection induced by TS, TS fragments, NGF or other growth factors), was calculated by the formula: 100%-[(apoptosis(%) of cells kept in RPMI containing test agent N÷apoptosis (%) of cells kept in RPMI)×100%]. Testing the effect of wortmannin (Sigma) and LY294002 (Sigma) in inhibiting the neuroprotection of TS was performed following the protocol described by others (Yao and Cooper, Science, 267:2003-2006 (1995); D'Mello et al., J. Neurosci 17:1548-1560 (1997)). In brief, PC12 cells were switched from growth medium to RPMI without and with TS or various other growth factors. After 24 hr, wortmannin and LY294002 were added to the cultures. After another 24 hrs, cells were examined for apoptosis by the DAPI assay, as above.

[3] = system: human Schwann cells; assay: Serum withdrawal-induced apoptosis of immortalized human Schwann cells (DAPI); type: cell-based
[4] = system: Akt kinase in PC12 cells; assay: Immunodetection of activated Akt (Ser 473) in PC12 cells; type: cell-based, rat
Description: PC12 cells were deprived of serum for 24-48 hours, stimulated with TS, TS-F or LTR for 2, 5 or 10 minutes and immediately lysed with 2% SDS. In studies using the PI-3 kinase inhibitor, LY294002 (LY), cells were pre-treated with the inhibitor (1 μM) for 30 min prior to the addition of TS-F or TS. The proteins in the cell lysate were separated in SDS-10% polyacrylamide gels, transferred to nitrocellulose membrane (Bio-Rad) and the phosphorylated form of protein kinase Akt was detected with phospho-Akt (Ser 473) antibody (New England BioLabs, Beverly, Mass.), followed by alkaline phosphatase-conjugated secondary antibody (Promega, Madison, Wis.). Bands corresponding to phospho-Akt (60 kDa) were quantified using a scanning densitometer (Bio-Rad).

[5] = system: human bladder carcinoma T-24 cell line; assay: IL-6 secretion by T-24 carcinoma cells (ELISA); type: cell-based
Description: Primary cultures of human intestinal microvascular endothelial cells (HIMEC) isolated from normal jejunal mucosa/submucosal tissue were prepared as described (Strong et al., Gastroenterology 114: 1244-1256 (1998)). The HIMEC were cultured in fibronectin-coated plasticware in MCDB medium (Sigma) supplemented with 20% FBS, 90 μg/ml heparin and 50 μg/ml endothelial cell growth factor (Sigma). T-24 cells (ATCC Accession No. HTB-4) were cultured in M199 medium supplemented with 10% FBS. PBMC were purified by Ficoll-Paque gradient as described (Current Protocols in Immunology, pp 7.1.1-7.1.2). Vero cells (ATCC Accession No. CCL-81) were grown in RPMI medium with 5% Nu serum and infected with the Silvio X-10/4 of T. cruzi as described previously (Chuenkova et al., J. Exp. Med. 181: 1693-1703, (1995)).
Endothelial cells and T-24 cells were plated on 24-well plates at a density of 1×10^3 cells/well, while peripheral blood mononuclear cells (PBMC) were plated in the similar wells at 1×10^6/well. Triplicat cultures of cells were incubated test agents for a predetermined amount of time. […] Cytokines and chemokines released in the culture supernatants were measured by ELISA assay following the instructions of the manufacturer (Endogen). The cytokines tested were IL-1β, IL-4, IL-8, IL-10, IL-12, IFN-γ, TNF-α, and the chemokines RANTES and MCP-1. Negative controls were cells incubated in medium containing polymixin B at 10 μg/ml, and positive controls were cells incubated with bacterial LPS at the low ng/ml range (for PBMC or HIMEC) or in the μg/ml range for carcinoma T-24 cells. In some experiments, IL-1β, or TNFα were used as positive control for cytokine release.

B1: TS: T. cruzi trans-sialidase purified by immuno-affinity chromatography from supernatants of infected Vero cells (SEQ ID NO:2, SEQ ID NO:34) (protein, listed as Trypanosoma cruzi)
chain: MVAIADARYETSSENSLIDTVAKYSVDDGETWETQIAIKNSRVSSVSRVVDPTVIVKGNKLYVLVGSYYSSRSYWSSHGDARDWDILLAVGEVTKSTAGGKITASIKWGSPVSLKKFFPAEMEGMHTNQFLGGAGVAIVASNGNLVYPVQVTNKRKQVFSKIFYSEDDGKTWKFGKGRSDFGCSEPVALEWEGKLIINTRVDWKRRLVYESSDMEKPWVEAVGTVSRVWGPSPKSNQPGSQTSFTAVTIEGMRVMLFTHPLNFKGRCVRDRLNLWLTDNQRIYNVGQVSIGDENSAYSSVLYKDDKLYCLHEINTDEVYSLVFARLVGELRIIKSVLRSWKNWTATCPAFAPLLIQPLRRQRVVVVPLSPRLVLLAFCRQRLPKRMGGSYRCVNASTANAERVRNGLKFAGVGGGALWPVSQQGQNQRYRFANHAFTLVASVTIHEAPRAASPLLGASLDSSGGKKLLGLSYDEKHQWQPIYGSTPVTPTGSWETGKRYHLVLTMANKIGSVYIDGELLEGSGQTVVPDGRTPDISHFYVGGYKRSDMPTISHVTVNNVLLYNRRQLNTEEIRTLFLSQDLIGTEAHMDSSSDSSAHSTPSTPADSSAHSTPSTPVDSSAHSTPSTPADSSAHGTPSTPVDSSAHGTPSTPADSSAHGTPSTPVDSSAHSTPSTPVDSSAHSTPSTPVDSSAHGAPSTPADSSAHGTPSTPVDSSAHGTPSTPADSSAHSTPSTPADSSAHSTPSTPADSSAHSTPSTPVDSSAHGTPSTPADSSAHSTPSTPADSSAHGTPSTPVDSSAHSTPSTPVDSSAHGTPSTPVDSSAHSTPSTPVDSSAHGTPSTPVDSSAHSTPSTPADSSAHSTPSTPADSSAHGTPSTPVDSSAHSTPSTPADSSAHSTPSTPVDSSAHSTPSTPADSSAHGTPSTPVDSSAHGTPSTPADSSAHSTPSTPADSSAHSTPSTPADSSAHSTPSTPVDSSAHSTPSTPADSSAHSTPSTPADSSAHSTPSTPADSSAHSTPSTPVDSSAHSTPSTPADSSAHGTPSTPADSSAHSTPSTPVDSSAHSTPSTPADSSAHGTPSTPADSSAHSTPSTPADSSAHGTPSTPADSSAHSTPSTPAGSSANGTVLILPDGAALSTFSGGGLLLCACALLLHVFFMAVF
neurite outgrowth in N18 cells [1]: induced neurite outgrowth
PC12 cells protected from death ([2]; TS 62 pM (equivalent to 12.5 ng/ml)): 45%
survival of PC12 cells grown in serum-free medium ([2]; TS 2.5 ng/ml alone or with CNTF 50 ng/ml or LIF 0.5 ng/ml): 13%
PC12 cells protected from apoptotic death ([2]; TS 2.5 ng/ml, NGF 0.5 ng/ml, alone or co-administered at the same concentrations): 15%
potency relative to NGF in preventing apoptosis ([2]; molar basis): more potent on a molar basis; also recorded: at concentrations lower than those required by nerve growth factor; also recorded: more effective on a molar base
protection of PC12 cells from apoptosis induced by trophic factor withdrawal ([2]; serum-free RPMI-1640/0.2% BSA, 17 hours, DAPI or TUNEL): effectively protected; also recorded: inhibits trophic factor withdrawal-induced apoptosis; also recorded: protects PC12 cells from apoptosis induced by trophic factor withdrawal in a dose dependent manner; also recorded: protected PC12 cells from apoptosis
duration of protection of PC12 cells by a single dose ([2]; time course, TS 0.5 nM (FIG. 5B)): up to several days; also recorded: delayed trophic factor withdrawal-induced apoptotic death
dose showing efficacy as trophic factor for Schwann cells [3]: ≥ 0.5 nM
inhibition of serum withdrawal-induced apoptosis of human Schwann cells ([3]; serum-free DMEM, 24-72 hours, DAPI): effectively inhibited; also recorded: dose-dependent inhibition
phosphorylation/activation of Akt kinase in PC12 cells ([4]; 100 ng/ml, 2, 5 or 10 minutes, phospho-Akt (Ser 473) antibody): becomes activated; also recorded: induces serine phosphorylation of Akt kinase
exposure time after which Akt becomes activated ([4]; TS 100 ng/ml): 2 to 5 min
IL-6 secretion by T-24 cells ([5]; 24 hours culture): stimulated IL-6 secretion
bacterial LPS concentration inducing the same IL-6 in T-24 cells ([5]; TS 1 μg/ml, 24 hr): 0.75 µg/mL
